Reference: patent US20150274802A1

Experiments:
type A insulin receptor [1] = biological target: type A insulin receptor (UniProt P06213); test: competitive binding SPA, [125I]insulin
type A insulin receptor [2] = biological target: type A insulin receptor (UniProt P06213); test: cell-based or functional assay
type B insulin receptor = type B insulin receptor (UniProt P06213); test: cell-based or functional assay
type A insulin receptor [3] = biological target: type A insulin receptor (UniProt P06213); test: binding assay

#48: Cys^B1-Cys^B1 #2* dimer, B^1[C1H5Y16L17O22R29]29:A^1[O9,14,15N18,21] (ligand)
% receptor activity (binding assay) (type A insulin receptor [1]): 147% | % receptor activity, phosphorylation assay (type A insulin receptor [2]): 102%

#31: IGF-2 analog B^2-C^2[K8]-A^2-D^2[R4] (from UniProt P01344 25-91) (ligand)
potency (type A insulin receptor [2]): 2 fold | potency (type B insulin receptor): 2 fold

Cys-Cys^B1 peptide (analog #2* with Cys^B1 disulfide-bonded to free cysteine) (ligand)
% activity (binding assay) (type A insulin receptor [1]): 55.4% | % activity, phosphorylation assay (type A insulin receptor [2]): 23.1%

Insulin analog B^1[H5Y16L17O22R29]29:A^1[O9,14,15N18,21] (ligand)
% activity (binding assay) (type A insulin receptor [3]): 55%
